Measured values from patent publication US20240299510A1.

Columns and labels:
HIT01-K21Q-R218E [1] = test: BLI (Octet) blocking; HIT01-K21Q-R218E on Ni-NTA sensor, 50 ug/ml AMG145 for 300 s, then NHP serum (competitor) at 200-fold dilution
HIT01-Combo3 = test: BLI (Octet); antibody IgG 50 ug/ml on AHC sensor, immunogen from 500 nM in 2x dilutions
HIT01-K21Q-R218E [2] = test: as above
human PCSK9 (human) = human PCSK9 (human) (UniProt Q8NBP7); test: BLI (Octet) blocking; wt PCSK9 on Ni-NTA sensor, 50 ug/ml AMG145 for 300 s, then NHP serum (competitor) at 200-fold dilution

Row | reduction of serum response when the probe is blocked (HIT01-K21Q-R218E [1]) [%] | Kd (HIT01-Combo3) [nM] | Kd (HIT01-K21Q-R218E [2]) [nM] | reduction of serum response when the probe is blocked (human PCSK9 (human)) [%] | Substance
1 | 50 | 0.005 | < 0.001 | 50 | AMG145 (antibody)
2 |  | 112 | 58 |  | Alirocumab (antibody)
